# Assay results as given in patent publication US20240190936A1 (Eli Lilly, published 2024).
# Positions count from the first letter of the chain named. *1 amine or outer side, *2 acyl side, *3 side chain or, on linkers, in order; H or OH if unused. Where no end group is shown, it is not given here. Side-chain parts run from the residue outwards. [ ]: non-standard residue; d: D form. The star is where a group is joined. C20 diacid = O=C(O)CCCCCCCCCCCCCCCCCCC(=O)*; αMePhe(2-F) = C[C@](N)(Cc1ccccc1F)C(=O)O; γGlu = O=C(O)[C@H](CCC(=O)[*:2])N[*:1]; AEEA = NCCOCCOCC(=O)O; Aib = CC(C)(N)C(=O)O
# T1: human GIP receptor (human, UniProt P48546 22-466)
# T1 construct: whole, on cells; cAMP assays used the whole cells; also called hGIPR
# T1 sequence (looked up): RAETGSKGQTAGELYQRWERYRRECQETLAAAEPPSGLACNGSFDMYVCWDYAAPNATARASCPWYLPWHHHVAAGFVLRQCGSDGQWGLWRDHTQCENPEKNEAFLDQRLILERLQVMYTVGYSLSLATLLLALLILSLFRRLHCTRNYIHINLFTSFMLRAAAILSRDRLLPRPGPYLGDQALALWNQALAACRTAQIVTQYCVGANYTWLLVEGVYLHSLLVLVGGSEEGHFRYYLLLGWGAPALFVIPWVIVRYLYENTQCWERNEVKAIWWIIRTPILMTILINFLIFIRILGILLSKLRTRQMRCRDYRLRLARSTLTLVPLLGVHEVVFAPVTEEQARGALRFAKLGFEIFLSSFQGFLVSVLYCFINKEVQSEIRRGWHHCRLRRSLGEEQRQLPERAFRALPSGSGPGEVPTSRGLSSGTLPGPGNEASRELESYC
# B1: Example 1 (peptide)
# peptide: YXQGTXTSDYSILLDKKAQXAFIEYLLEGGPSSGAPPPS
# modifications: Aib at 2; αMeF at 6; K17 conjugated at the epsilon-amino group with (2-[2-(2-amino-ethoxy)-ethoxy]-acetyl)2-(γGlu)-CO-(CH2)18-CO2H; Aib at 20; C-terminal amide
# notes: Synthetic acylated peptide
# B2: Example 2 (peptide)
# peptide: B1 peptide with L13X
# modifications: Aib at 2; αMeF at 6; αMeL at 13; K17 conjugated at the epsilon-amino group with (2-[2-(2-amino-ethoxy)-ethoxy]-acetyl)2-(γGlu)-CO-(CH2)18-CO2H; Aib at 20; C-terminal amide
# notes: Synthetic acylated peptide
# B3: Example 4 (peptide)
# peptide: B1 peptide
# modifications: Aib at 2; αMeF(2F) at 6; K17 conjugated at the epsilon-amino group with (2-[2-(2-amino-ethoxy)-ethoxy]-acetyl)-(γGlu)-CO-(CH2)18-CO2H; Aib at 20; C-terminal amide
# notes: Synthetic acylated peptide
# B4: Example 3 (peptide)
# peptide: B1 peptide with Q3H
# modifications: Aib at 2; αMeF(2F) at 6; K17 conjugated at the epsilon-amino group with (2-[2-(2-amino-ethoxy)-ethoxy]-acetyl)2-(γGlu)-CO-(CH2)18-CO2H; Aib at 20; C-terminal amide
# notes: Synthetic acylated peptide
# B5: Example 5 (peptide)
# peptide: Y[Aib]QGT[αMePhe(2-F)]TSDYSILLDKK([AEEA-γGlu-C20 diacid])AQQAFIEYLLEGGPSSGAPPPS-NH2
# modifications: N-terminus assumed
# SMILES: CC[C@H](C)[C@H](NC(=O)[C@H](Cc1ccccc1)NC(=O)[C@H](C)NC(=O)[C@H](CCC(N)=O)NC(=O)[C@H](CCC(N)=O)NC(=O)[C@H](C)NC(=O)[C@H](CCCCNC(=O)COCCOCCNC(=O)CC[C@H](NC(=O)CCCCCCCCCCCCCCCCCCC(=O)O)C(=O)O)NC(=O)[C@H](CCCCN)NC(=O)[C@H](CC(=O)O)NC(=O)[C@H](CC(C)C)NC(=O)[C@H](CC(C)C)NC(=O)[C@@H](NC(=O)[C@H](CO)NC(=O)[C@H](Cc1ccc(O)cc1)NC(=O)[C@H](CC(=O)O)NC(=O)[C@H](CO)NC(=O)[C@@H](NC(=O)[C@](C)(Cc1ccccc1F)NC(=O)[C@@H](NC(=O)CNC(=O)[C@H](CCC(N)=O)NC(=O)C(C)(C)NC(=O)[C@@H](N)Cc1ccc(O)cc1)[C@@H](C)O)[C@@H](C)O)[C@@H](C)CC)C(=O)N[C@@H](CCC(=O)O)C(=O)N[C@@H](Cc1ccc(O)cc1)C(=O)N[C@@H](CC(C)C)C(=O)N[C@@H](CC(C)C)C(=O)N[C@@H](CCC(=O)O)C(=O)NCC(=O)NCC(=O)N1CCC[C@H]1C(=O)N[C@@H](CO)C(=O)N[C@@H](CO)C(=O)NCC(=O)N[C@@H](C)C(=O)N1CCC[C@H]1C(=O)N1CCC[C@H]1C(=O)N1CCC[C@H]1C(=O)N[C@@H](CO)C(N)=O
# notes: Synthetic acylated peptide
# B6: Example 6 (peptide)
# peptide: Y[Aib]QGT[αMePhe(2-F)]TSDYSILLDKK([AEEA-γGlu-C20 diacid])AQHAFIEYLLEGGPSSGAPPPS-NH2
# modifications: N-terminus assumed
# SMILES: CC[C@H](C)[C@H](NC(=O)[C@H](Cc1ccccc1)NC(=O)[C@H](C)NC(=O)[C@H](Cc1c[nH]cn1)NC(=O)[C@H](CCC(N)=O)NC(=O)[C@H](C)NC(=O)[C@H](CCCCNC(=O)COCCOCCNC(=O)CC[C@H](NC(=O)CCCCCCCCCCCCCCCCCCC(=O)O)C(=O)O)NC(=O)[C@H](CCCCN)NC(=O)[C@H](CC(=O)O)NC(=O)[C@H](CC(C)C)NC(=O)[C@H](CC(C)C)NC(=O)[C@@H](NC(=O)[C@H](CO)NC(=O)[C@H](Cc1ccc(O)cc1)NC(=O)[C@H](CC(=O)O)NC(=O)[C@H](CO)NC(=O)[C@@H](NC(=O)[C@](C)(Cc1ccccc1F)NC(=O)[C@@H](NC(=O)CNC(=O)[C@H](CCC(N)=O)NC(=O)C(C)(C)NC(=O)[C@@H](N)Cc1ccc(O)cc1)[C@@H](C)O)[C@@H](C)O)[C@@H](C)CC)C(=O)N[C@@H](CCC(=O)O)C(=O)N[C@@H](Cc1ccc(O)cc1)C(=O)N[C@@H](CC(C)C)C(=O)N[C@@H](CC(C)C)C(=O)N[C@@H](CCC(=O)O)C(=O)NCC(=O)NCC(=O)N1CCC[C@H]1C(=O)N[C@@H](CO)C(=O)N[C@@H](CO)C(=O)NCC(=O)N[C@@H](C)C(=O)N1CCC[C@H]1C(=O)N1CCC[C@H]1C(=O)N1CCC[C@H]1C(=O)N[C@@H](CO)C(N)=O
# notes: Synthetic acylated peptide
# Target: T1, human GIP receptor
# Test: radioligand competition SPA, membranes of HEK293 cells overexpressing human GIPR
# Protocol: (§1) Radioligand competition binding assays are run to determine the equilibrium dissociation constant for Example compounds and comparator molecules.
# (§2) The assays are performed in the presence of bacitracin as a non-specific blocking agent to prevent acylated moieties of test analogs from binding to protein components used in standard assay buffers (e.g., albumin).
# (§3) Competition curves are plotted as the percent specific inhibition (y-axis) versus log concentration of compound (x-axis) and analyzed using a four parameter nonlinear regression fit with variable slope (ABase or Genedata).
row,Binder,Ki [pM]
1,B1,27.8
2,B2,41.3
3,B3,83.2
4,B4,68.4
5,B5,34.7
6,B6,38.8

# Target: T2, human glucagon receptor (human, UniProt P47871 26-477)
# T2 sequence (P47871 26-477): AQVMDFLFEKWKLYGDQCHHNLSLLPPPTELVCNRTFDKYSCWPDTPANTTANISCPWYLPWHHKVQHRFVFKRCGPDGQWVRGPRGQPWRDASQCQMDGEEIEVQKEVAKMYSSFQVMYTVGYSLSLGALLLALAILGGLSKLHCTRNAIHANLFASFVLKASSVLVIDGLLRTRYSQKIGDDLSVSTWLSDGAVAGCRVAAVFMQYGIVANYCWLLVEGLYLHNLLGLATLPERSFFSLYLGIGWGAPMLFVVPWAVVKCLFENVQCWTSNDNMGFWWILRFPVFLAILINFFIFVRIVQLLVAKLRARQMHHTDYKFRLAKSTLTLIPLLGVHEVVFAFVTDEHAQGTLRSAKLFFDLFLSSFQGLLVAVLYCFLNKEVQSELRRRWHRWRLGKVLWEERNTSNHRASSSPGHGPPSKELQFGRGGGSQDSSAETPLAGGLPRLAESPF
# Test: cell-based or functional assay
row,Binder,"cAMP EC50, in the presence of FBS and BSA [pM]"
1,B1,6330
2,B2,4750
3,B3,1780
4,B4,3460
5,B5,1870
6,B6,1760

# Target: T1, human GIP receptor
# Test: cell-based or functional assay
row,Binder,"cAMP EC50, in the presence of FBS and BSA [pM]"
1,B1,1820
2,B2,1340
3,B3,1370
4,B4,1370
5,B5,1910
6,B6,1410

# Target: T3, human GLP-1 receptor (human, UniProt P43220 24-463)
# Test: cell-based or functional assay
row,Binder,"cAMP EC50, in the presence of FBS and BSA [pM]"
1,B1,12600
2,B2,11600
3,B3,10600
4,B4,13100
5,B5,13000
6,B6,8940

# Target: T2, human glucagon receptor
# Test: cell-based or functional assay
# Remark: another data set of the same source
row,Binder,"cAMP EC50, in the presence of 0.1% casein [pM]"
1,B1,158
2,B2,96
3,B3,29.6
4,B4,30.1
5,B5,34.3
6,B6,29.3

# Target: T1, human GIP receptor
# Test: cell-based or functional assay
# Remark: another data set of the same source
row,Binder,"cAMP EC50, in the presence of 0.1% casein [pM]"
1,B1,22.6
2,B2,32.9
3,B3,32.1
4,B4,21.5
5,B5,30.6
6,B6,34.9

# Target: T3, human GLP-1 receptor
# Test: cell-based or functional assay
# Remark: another data set of the same source
row,Binder,"cAMP EC50, in the presence of 0.1% casein [pM]"
1,B1,112
2,B2,106
3,B3,145
4,B4,104
5,B5,103
6,B6,115

# Target: T2, human glucagon receptor
# Test: radioligand competition SPA, membranes of HEK293 cells overexpressing human GcgR
# Protocol: as §1, §2, §3
row,Binder,Ki [pM]
1,B1,955
2,B2,1490
3,B3,637
4,B4,469
5,B5,419
6,B6,382

# Target: T3, human GLP-1 receptor
# Test: radioligand competition SPA, membranes of HEK293 cells overexpressing human GLP-1R
# Protocol: as §1, §2, §3
row,Binder,Ki [pM]
1,B1,2510
2,B2,2410
3,B3,1210
4,B4,1660
5,B5,1170
6,B6,822
